# According to PMC8086558, “Membrane Interactions of the Peroxisomal Proteins PEX5 and PEX14” (Frontiers in Cell and Developmental Biology, 2021):
# B1: PEX14 NTD (residues 1–104) (domain or fragment, human, UniProt O75381 1-104, looked up)
# chain: MASSEQAEQPSQPSSTPGSENVLPREPLIATAVKFLQNSRVRQSPLATRRAFLKKKGLTDEEIDMAFQQSGTAADEPSSLGPATQVVPVQPPHLISQPYSPAGS
# notes: human PEX14, N-terminal region up to the transmembrane span, residues 1-104, codon-optimised synthetic gene; holds the globular helical domain (residues 16-80); also called PEX14 (1–104); Pex14 (1–104); source: E. coli BL21 (DE3), purified (Ni-NTA, TEV cleavage, reverse Ni2+ column, SEC Superdex S75); not shown: His6, N-terminal, cleaved
# B2: PEX5 NTD (residues 1–315) (domain or fragment)
# chain: not shown
# notes: human PEX5, N-terminal intrinsically disordered domain, residues 1-315, codon-optimised synthetic gene; harbours eight WF-like motifs (W0-W7); No primer pair is printed for the 1-315 construct; also called PEX5 (1–315); Pex5 (1–315); source: E. coli BL21 (DE3), purified (Ni-NTA under urea lysis, SEC Superdex S75), lyophilized; not shown: His6, N-terminal, kept
# Columns and labels:
# Settings in all cases: both partners purified
# [1] = target: B2; experiment: ITC; 50 uM PEX5 (1-315) injected into the cell with 30 uM PEX14 (1-104); 25 °C; 20 mM NaP pH 6.5, 100 mM NaCl with 44 uM DMPC/D7PC bicelles; triplicates; one-site model, number of sites set to 1/8
# [2] = target: B2; experiment: ITC; 50 uM PEX5 (1-315) injected into the cell with 30 uM PEX14 (1-104); 25 °C; 20 mM NaP pH 6.5, 100 mM NaCl, no bicelles; triplicates; one-site model, number of sites set to 1/8
# [3] = target: B1; experiment: ITC; 50 uM PEX5 (1-315) injected into the cell with 30 uM PEX14 (1-104); 25 °C; 20 mM NaP pH 6.5, 100 mM NaCl with 44 uM DMPC/D7PC bicelles; triplicates; one-site model, number of sites set to 1/8
# [4] = target: B1; experiment: ITC; 50 uM PEX5 (1-315) injected into the cell with 30 uM PEX14 (1-104); 25 °C; 20 mM NaP pH 6.5, 100 mM NaCl, no bicelles; triplicates; one-site model, number of sites set to 1/8
Kd [1] [nM],Kd [2] [nM],dH [3] [kcal/mol],stoichiometry N [3],dH [4] [kcal/mol],stoichiometry N [4],Binder
260 ± 26,147 ± 16,–,–,–,–,B1
–,–,-92 ± 3,0.125,-147 ± 7,0.125,B2
